Data on 44 variants can be found in the supplement of paper PMC12783771.

± gives the standard deviation of the averaged measurements.

First the molecules themselves.
B1: library; numbered along this chain (parent)
chain: MNIQIGELAKRTACPVVTIRFYEQEGLLPPPGRSRGNFRLYGEEHVERLQFIRHCRSLDMPLSDVRTLLSYRKRPDQDCGEVNMLLDEHIRQVESRIGALLELKHHLVELREACSGARPAQSCGILQGLSDCVCDTRGTTAHPSD

In data set [1] the parent is B1. Nature of the data set: sfGFP reporter fluorescence (15 h) (µM FITC); higher = higher leak. As to conditions: library round: Round 1; ligand: none. As to the method: (§1)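 Cell-free biosensing: 1 µL Echo-assembled CFE reactions with linear PbrR variant templates (5 nM) and pPbrR-sfGFP reporter, with 1 µM Pb, 30 µM Zn or no ligand; endpoint sfGFP fluorescence after 15 h at 30 °C calibrated as µM FITC. Round 1 ML-predicted PbrR mutants; 3 biological replicates.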

In data set [2] the parent is B1. Nature of the data set: sfGFP reporter fluorescence (15 h) (µM FITC); higher = stronger transcriptional activation. As to conditions: library round: Round 1. The procedure:
as §1

Data set [3] covers variants of B1. Kind of data set: sfGFP reporter fluorescence (15 h) (µM FITC); higher = higher leak. Particulars: library round: Round 0; ligand: none. As to the method:
(§2)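 Cell-free (BL21 Star DE3 extract, PANOx-SP) biosensing: 1 µL Echo-assembled reactions with linear PbrR variant templates (5 nM) and pPbrR-sfGFP reporter, with 1 µM Pb (lead chloride), 30 µM Zn (zinc acetate) or no ligand; endpoint sfGFP fluorescence after 15 h at 30 °C, calibrated as µM FITC. Round 0 library (alanine scan, site saturation, combinatorial) of PbrR from Cupriavidus metallidurans; 2 biological replicates.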

The variants in data set [4] derive from B1. Nature of the data set: sfGFP reporter fluorescence (15 h) (µM FITC); higher = stronger transcriptional activation. Particulars: library round: Round 0. As to the method:
as §2

As to D135A T136S, the sfGFP reporter fluorescence in data set [1] was 0.065 ± 0.00085; in data set [2] (ligand: 1 µM Pb) it was 0.0751 ± 0.0085; in data set [2] (ligand: 30 µM Zn) it was 0.424 ± 0.047.
For the variant I3D, the figures for the sfGFP reporter fluorescence in data set [3], in data set [4] (ligand: 1 µM Pb) and in data set [4] (ligand: 30 µM Zn) were 0.06139 ± 0.00026, 0.06011 ± 0.00052 and 0.08118 ± 0.00078, respectively.
Consider I3N, for which the sfGFP reporter fluorescence in data set [3] is 0.0599 ± 0.0013; in data set [4] (ligand: 1 µM Pb), 0.0579 ± 0.0021; in data set [4] (ligand: 30 µM Zn), 0.1142 ± 0.00026.
On the same counts, the results for I3H are 0.059 ± 0.001, 0.0707 ± 0.0021 and 0.356 ± 0.01.
On the same counts, the results for I3P are 0.0592 ± 0.0018, 0.0583 ± 0.0036 and 0.0546 ± 0.0026.
For I3F, in that order: 0.05552 ± 0.00026, 0.0643 ± 0.0029 and 0.587 ± 0.019.
Turning to I3Q, the sfGFP reporter fluorescence is 0.0548 ± 0.0029 in data set [3], 0.0671 ± 0.0026 in data set [4] (ligand: 1 µM Pb) and 0.336 ± 0.0075 in data set [4] (ligand: 30 µM Zn).
Regarding I3K, the sfGFP reporter fluorescence in data set [3] is 0.0608 ± 0.001; in data set [4] (ligand: 1 µM Pb), 0.0652 ± 0.0057; in data set [4] (ligand: 30 µM Zn), 0.308 ± 0.008.
Consider I3E, for which the values for the sfGFP reporter fluorescence in data set [3], in data set [4] (ligand: 1 µM Pb) and in data set [4] (ligand: 30 µM Zn) were 0.061 ± 0.0013, 0.0601 ± 0.001 and 0.101 ± 0.0013, respectively.
Turning to I3G, the results for the sfGFP reporter fluorescence in data set [3], in data set [4] (ligand: 1 µM Pb) and in data set [4] (ligand: 30 µM Zn) were 0.061 ± 0.0023, 0.0755 ± 0.0047 and 0.1957 ± 0.001, respectively.
On to I3Y, for which the sfGFP reporter fluorescence in data set [3] was determined as 0.0612 ± 0.0021; in data set [4] (ligand: 1 µM Pb) it was 0.06744 ± 0.00052; in data set [4] (ligand: 30 µM Zn), 0.977 ± 0.061.
On to I3M, for which the figures for the sfGFP reporter fluorescence in data set [3], in data set [4] (ligand: 1 µM Pb) and in data set [4] (ligand: 30 µM Zn) were 0.0641 ± 0.0015, 0.0768 ± 0.0018 and 1.27 ± 0.15, respectively.
I3T: the sfGFP reporter fluorescence in data set [3] came out at 0.0597 ± 0.001; in data set [4] (ligand: 1 µM Pb) it was 0.0667 ± 0.0047; in data set [4] (ligand: 30 µM Zn), 0.331 ± 0.011.
Turning to I3A, the figures for the sfGFP reporter fluorescence in data set [3], in data set [4] (ligand: 1 µM Pb) and in data set [4] (ligand: 30 µM Zn) were 0.0544 ± 0.0049, 0.0594 ± 0.001 and 0.339 ± 0.0078, respectively.
For the variant I3L, the sfGFP reporter fluorescence in data set [3] came out at 0.0568 ± 0.0057; in data set [4] (ligand: 1 µM Pb), 0.0722 ± 0.0042; in data set [4] (ligand: 30 µM Zn), 0.821 ± 0.0098.
With I3W, the sfGFP reporter fluorescence in data set [3] came out at 0.05919 ± 0.00026; in data set [4] (ligand: 1 µM Pb) it was 0.0766 ± 0.001; in data set [4] (ligand: 30 µM Zn) it was 0.957 ± 0.056.
On to I3V, for which the values for the sfGFP reporter fluorescence in data set [3], in data set [4] (ligand: 1 µM Pb) and in data set [4] (ligand: 30 µM Zn) were 0.0619 ± 0.001, 0.124 ± 0.0044 and 1.32 ± 0.025, respectively.
As to I3S, the sfGFP reporter fluorescence came to 0.05864 ± 0.00052 in data set [3], 0.0605 ± 0.0036 in data set [4] (ligand: 1 µM Pb) and 0.2084 ± 0.0013 in data set [4] (ligand: 30 µM Zn).
On the same counts, the results for I3C are 0.0586, 0.0737 ± 0.0052 and 0.774 ± 0.011.
For I3R, in that order: 0.0605, 0.0792 and 0.376 ± 0.024.
As for M1A, the sfGFP reporter fluorescence in data set [3] was determined as 0.0618 ± 0.0029; in data set [4] (ligand: 1 µM Pb), 0.0715 ± 0.0047; in data set [4] (ligand: 30 µM Zn), 0.124 ± 0.0015.
On to D135A P143Y, for which the sfGFP reporter fluorescence turned out to be 0.0639 ± 0.0033 in data set [1], 0.0797 ± 0.0033 in data set [2] (ligand: 1 µM Pb) and 0.361 ± 0.028 in data set [2] (ligand: 30 µM Zn).
Consider D135A P143T, for which the sfGFP reporter fluorescence in data set [1] amounted to 0.063 ± 0.0013; in data set [2] (ligand: 1 µM Pb), 0.07562 ± 0.00042; in data set [2] (ligand: 30 µM Zn), 0.374 ± 0.028.
D135A P143A: the results for the sfGFP reporter fluorescence in data set [1], in data set [2] (ligand: 1 µM Pb) and in data set [2] (ligand: 30 µM Zn) were 0.0645 ± 0.0011, 0.0761 ± 0.0051 and 0.423 ± 0.016, respectively.
Regarding D135A P143F, the figures for the sfGFP reporter fluorescence in data set [1], in data set [2] (ligand: 1 µM Pb) and in data set [2] (ligand: 30 µM Zn) were 0.0621 ± 0.0018, 0.0718 ± 0.0013 and 0.299 ± 0.028, respectively.
For the variant D135A P143M, the sfGFP reporter fluorescence in data set [1] stood at 0.0655 ± 0.002; in data set [2] (ligand: 1 µM Pb), 0.07977 ± 0.00056; in data set [2] (ligand: 30 µM Zn) it was 0.405 ± 0.014.
Take D135A P143W: the sfGFP reporter fluorescence is 0.0683 ± 0.0014 in data set [1], 0.0809 ± 0.0017 in data set [2] (ligand: 1 µM Pb) and 0.372 ± 0.0075 in data set [2] (ligand: 30 µM Zn).
Regarding D131H P143Y, the sfGFP reporter fluorescence was found to be 0.064 ± 0.0022 in data set [1], 0.0797 ± 0.012 in data set [2] (ligand: 1 µM Pb) and 0.383 ± 0.0077 in data set [2] (ligand: 30 µM Zn).
Regarding E7D, the values for the sfGFP reporter fluorescence in data set [3], in data set [4] (ligand: 1 µM Pb) and in data set [4] (ligand: 30 µM Zn) were 0.0592 ± 0.0018, 0.0823 ± 0.006 and 1.08 ± 0.044, respectively.
E7L: the sfGFP reporter fluorescence came out at 0.06175 ± 0.00026 in data set [3], 0.0837 ± 0.0013 in data set [4] (ligand: 1 µM Pb) and 0.846 ± 0.052 in data set [4] (ligand: 30 µM Zn).
As for E7V, the sfGFP reporter fluorescence in data set [3] was 0.06285 ± 0.00026; in data set [4] (ligand: 1 µM Pb), 0.0865; in data set [4] (ligand: 30 µM Zn) it was 0.961 ± 0.14.
On to E7A, for which the sfGFP reporter fluorescence in data set [3] was found to be 0.0552 ± 0.0018; in data set [4] (ligand: 1 µM Pb), 0.0671 ± 0.001; in data set [4] (ligand: 30 µM Zn), 1.07 ± 0.011.
E7R: the sfGFP reporter fluorescence was found to be 0.06395 ± 0.00026 in data set [3], 0.102 ± 0.0054 in data set [4] (ligand: 1 µM Pb) and 1.25 ± 0.16 in data set [4] (ligand: 30 µM Zn).
On to E7S, for which the figures for the sfGFP reporter fluorescence in data set [3], in data set [4] (ligand: 1 µM Pb) and in data set [4] (ligand: 30 µM Zn) were 0.0625 ± 0.0018, 0.087 ± 0.0044 and 0.999 ± 0.052, respectively.
Consider E7H, for which the sfGFP reporter fluorescence in data set [3] worked out at 0.06139 ± 0.00026; in data set [4] (ligand: 1 µM Pb) it was 0.083 ± 0.0013; in data set [4] (ligand: 30 µM Zn), 0.638 ± 0.036.
With E7N, the sfGFP reporter fluorescence in data set [3] is 0.05919 ± 0.00026; in data set [4] (ligand: 1 µM Pb), 0.088 ± 0.0047; in data set [4] (ligand: 30 µM Zn), 0.858 ± 0.081.
On the same counts, the results for E7K are 0.0662 ± 0.00078, 0.113 ± 0.0023 and 1.99 ± 0.1.
As to E7F, the figures for the sfGFP reporter fluorescence in data set [3], in data set [4] (ligand: 1 µM Pb) and in data set [4] (ligand: 30 µM Zn) were 0.0601 ± 0.0015, 0.0636 ± 0.0013 and 0.133 ± 0.012, respectively.
E7T: the figures for the sfGFP reporter fluorescence in data set [3], in data set [4] (ligand: 1 µM Pb) and in data set [4] (ligand: 30 µM Zn) were 0.0625 ± 0.0018, 0.0894 ± 0.001 and 0.904 ± 0.041, respectively.
Take E7P: the sfGFP reporter fluorescence amounted to 0.061 ± 0.0013 in data set [3], 0.0709 ± 0.00078 in data set [4] (ligand: 1 µM Pb) and 0.3319 ± 0.0018 in data set [4] (ligand: 30 µM Zn).
Regarding E7I, the sfGFP reporter fluorescence in data set [3] came to 0.059 ± 0.001; in data set [4] (ligand: 1 µM Pb) it was 0.0759 ± 0.0031; in data set [4] (ligand: 30 µM Zn), 0.696 ± 0.014.
E7M: the sfGFP reporter fluorescence is 0.0616 ± 0.0021 in data set [3], 0.0854 ± 0.0021 in data set [4] (ligand: 1 µM Pb) and 0.859 ± 0.01 in data set [4] (ligand: 30 µM Zn).
On to E7Q, for which the sfGFP reporter fluorescence in data set [3] came to 0.0605; in data set [4] (ligand: 1 µM Pb), 0.0891 ± 0.0026; in data set [4] (ligand: 30 µM Zn), 1.18 ± 0.057.
Turning to E7C, the sfGFP reporter fluorescence is 0.06121 ± 0.00052 in data set [3], 0.0718 ± 0.0021 in data set [4] (ligand: 1 µM Pb) and 0.421 ± 0.026 in data set [4] (ligand: 30 µM Zn).
